Among the data in the supplement of paper PMC5998384 are thermal stability score and melting temperature values, retold here.

Series [1] deals with HeLa Kyoto. Put plainly: thermal stability score vs G1/S (z-score of summed log2 fold changes over temperatures); higher = more thermally stable than in G1/S.
Series [2] relates to HeLa Kyoto. The series can be described thus: melting temperature (median over replicates), in situ; higher = more thermally stable.
The mark [3] stands for this setting: cell cycle stage: early G1 (4.5 h after nocodazole release).
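For melting temperature (median over replicates), in situ in this document: HeLa Kyoto cells synchronized by double thymidine or nocodazole block, proteins quantified by TMT10plex mass spectrometry, three independent biological replicates.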
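For thermal stability score vs G1/S (z-score of summed log2 fold changes over temperatures) in this document: synchronized HeLa Kyoto cells, proteins quantified by TMT10plex mass spectrometry, three biological replicates, mitosis taken 0.5 h after nocodazole release, G1/S directly after double thymidine block.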

HRNR: the thermal stability score with HeLa Kyoto [1] (setting [3]) amounted to 5.84; in the series with HeLa Kyoto [1] (cell cycle stage: mitosis), 1.12. Turning to KIAA0100, the results for the thermal stability score with HeLa Kyoto [1] (setting [3]) and in the series with HeLa Kyoto [1] (cell cycle stage: mitosis) were 1.31 and 1.36, respectively. As to “MNCEREQLRGNQEAAAAPDTMAQPYASAQFAPPQNGIPAEYTAPHPHPAPEYTGQTTVPEHTLNLYPPAQTHSEQSPADTSAQTVSGTATQTDDAAPTDGQPQTQPSENTENKSQPKRLHVSNIPFRFRDPDLRQMFGQFGKILDVEIIFNERGSKGFGFVTFENSADADRAREKLHGTVVEGRKIEVNNATARVMTNKKTVNPYTNGWKLNPVVGAVYSPEFYAGTVLLCQANQEGSSMYSAPSSLVYTSAMPGFPYPAATAAAAYRGAHLRGRGRTVYNTFRAAAPPPPIPAYGGVVYQDGFYGADIYGGYAAYRYAQPTPATAAAYSDSYGRVYAADPYHHALAPAPTYGVGAMNAFAPLTDAKTRSHADDVGLVLSSLQASIYRGGYNRFAPY [RBFOX1]”, the melting temperature in the series with HeLa Kyoto [2] (cell cycle stage: G1/S) was determined as 49.8 °C. On the same count and under the same terms, the figure for “MNHLPEDMENALTGSQSSHASLRNIHSINPTQLMARIESYEGREKKGISDVRRTFCLFVTFDLLFVTLLWIIELNVNGGIENTLEKEVMQYDYYSSYFDIFLLAVFRFKVLILAYAVCRLRHWWAIALTTAVTSAFLLAKVILSKLFSQGAFGYVLPIISFILAWIETWFLDFKVLPQEAEEENRLLIVQDASERAALIPGGLSDGQFYSPPESEAGSEEAEEKQDSEKPLLEL [STARD3NL]” is 55.4 °C; for “MPGPSPGLRRALLGLWAALGLGLFGLSAVSQEPFWADLQPRVAFVERGGSLWLNCSTNCPRPERGGLETSLRRNGTQRGLRWLARQLVDIREPETQPVCFFRCARRTLQARGLIRTFQRPDRVELMPLPPWQPVGENFTLSCRVPGAGPRASLTLTLLRGAQELIRRSFAGEPPRARGAVLTATVLARREDHGANFSCRAELDLRPHGLGLFENSSAPRELRTFSLSPDAPRLAAPRLLEVGSERPVSCTLDGLFPASEARVYLALGDQNLSPDVTLEGDAFVATATATASAEQEGARQLVCNVTLGGENRETRENVTIYSFPAPLLTLSEPSVSEGQMVTVTCAAGAQALVTLEGVPAAVPGQPAQLQLNATENDDRRSFFCDATLDVDGETLIKNRSAELRVLYAPRLDDSDCPRSWTWPEGPEQTLRCEARGNPEPSVHCARSDGGAVLALGLLGPVTRALSGTYRCKAANDQGEAVKDVTLTVEYAPALDSVGCPERITWLEGTEASLSCVAHGVPPPDVICVRSGELGAVIEGLLRVAREHAGTYRCEATNPRGSAAKNVAVTVEYGPRFEEPSCPSNWTWVEGSGRLFSCEVDGKPQPSVKCVGSGGATEGVLLPLAPPDPSPRAPRIPRVLAPGIYVCNATNRHGSVAKTVVVSAESPPEMDESTCPSHQTWLEGAEASALACAARGRPSPGVRCSREGIPWPEQQRVSREDAGTYHCVATNAHGTDSRTVTVGVEYRPVVAELAASPPGGVRPGGNFTLTCRAEAWPPAQISWRAPPGALNIGLSSNNSTLSVAGAMGSHGGEYECAATNAHGRHARRITVRVAGPWLWVAVGGAAGGAALLAAGAGLAFYVQSTACKKGEYNVQEAESSGEAVCLNGAGGGAGGAAGAEGGPEAAGGAAESPAEGEVFAIQLTSA [ICAM5]” it is 54.5 °C. On to “MPSETPQAEVGPTGCPHRSGPHSAKGSLEKGSPEDKEAKEPLWIRPDAPSRCTWQLGRPASESPHHHTAPAKSPKILPDILKKIGDTPMVRINKIGKKFGLKCELLAKCEFFNAGGSVKDRISLRMIEDAERDGTLKPGDTIIEPTSGNTGIGLALAAAVRGYRCIIVMPEKMSSEKVDVLRALGAEIVRTPTNARFDSPESHVGVAWRLKNEIPNSHILDQYRNASNPLAHYDTTADEILQQCDGKLDMLVASVGTGGTITGIARKLKEKCPGCRIIGVDPEGSILAEPEELNQTEQTTYEVEGIGYDFIPTVLDRTVVDKWFKSNDEEAFTFARMLIAQEGLLCGGSAGSTVAVAVKAAQELQEGQRCVVILPDSVRNYMTKFLSDRWMLQKGFLKEEDLTEKKPWWWHLRVQELGLSAPLTVLPTITCGHTIEILREKGFDQAPVVDEAGVILGMVTLGNMLSSLLAGKVQPSDQVGKVIYKQFKQIRLTDTLGRLSHILEMDHFALVVHEQIQYHSTGKSSQRQMVFGVVTAIDLLNFVAAQERDQK [CBS]”, for which the figures for the melting temperature with HeLa Kyoto [2] (cell cycle stage: G1/S) and in the series on HeLa Kyoto [2] (cell cycle stage: mitosis) were 55 °C and 55.8 °C, respectively. Turning to “MQSREDAPRSRRLASPRGGKRPKKIHKPTVSAFFTGPEELKDTAHSAALLAQLKSFYDARLLCDVTIEVVTPGSGPGTGRLFPCNRNVLAAACPYFKSMFTGGMYESQQASVTMHDVDAESFEVLVDYCYTGRVSLSEANVERLYAASDMLQLEYVREACASFLARRLDLTNCTAILKFADAFGHRKLRSQAQSYIAQNFKQLSHMGSIREETLADLTLAQLLAVLRLDSLDVESEQTVCHVAVQWLEAAPKERGPSAAEVFKCVRWMHFTEEDQDYLEGLLTKPIVKKYCLDVIEGALQMRYGDLLYKSLVPVPNSSSSSSSSNSLVSAAENPPQRLGMCAKEMVIFFGHPRDPFLCCDPYSGDLYKVPSPLTCLAHTRTVTTLAVCISPDHDIYLAAQPRTDLWVYKPAQNSWQQLADRLLCREGMDVAYLNGYIYILGGRDPITGVKLKEVECYNVKRNQWALVAPLPHSFLSFDLMVIRDYLYALNSKRMFCYDPSHNMWLKCVSLKRNDFQEACVFNEEIYCICDIPVMKVYNPVRAEWRQMNNIPLVSETNNYRIIKHGQKLLLITSRTPQWKKNRVTVYEYDIRGDQWINIGTTLGLLQFDSNFFCLSARVYPSCLEPGQSFLTEEEEIPSESSTEWDLGGFSEPDSESGSSSSLSDDDFWVRVAPQ [KBTBD6]”, the melting temperature was found to be 50.6 °C in the series on HeLa Kyoto [2] (cell cycle stage: G1/S) and 51.1 °C in the series on HeLa Kyoto [2] (cell cycle stage: mitosis).

In turn, “MSAARESHPHGVKRSASPDDDLGSSNWEAADLGNEERKQKFLRLMGAGKKEHTGRLVIGDHKSTSHFRTGEEDKKINEELESQYQQSMDSKLSGRYRRHCGLGFSEVEDHDGEGDVAGDDDDDDDDSPDPESPDDSESDSESEKEESAEELQAAEHPDEVEDPKNKKDAKSNYKMMFVKSSGS [C11ORF58]” showed a melting temperature in the series on HeLa Kyoto [2] (cell cycle stage: G1/S) of 55 °C. With “MSKAHPPELKKFTDKKFSLKLNGGRHVQGILRGFDPFMNLVIDECVEMATSGQQKNIGMVEIRGNSIIMLEALERV [SNRPGP15]”, the values for the melting temperature with HeLa Kyoto [2] (cell cycle stage: G1/S) and in the series on HeLa Kyoto [2] (cell cycle stage: mitosis) were 53.6 °C and 54 °C, respectively. The like results for “MSSSSSSPRETYEEDREYESQAKRLKTEEGEIDYSAEEGENRREATPRGGGDGGGGGRSFSQPEAGGSHHKVSVSPVVHVRGLCESVVEADLVEALEKFGTICYVMMMPFKRQALVEFENIDSAKECVTFAADEPVYIAGQQAFFNYSTSKRITRPGNTDDPSGGNKVLLLSIQNPLYPITVDVLYTVCNPVGKVQRIVIFKRNGIQAMVEFESVLCAQKAKAALNGADIYAGCCTLKIEYARPTRLNVIRNDNDSWDYTKPYLGRRDRGKGRQRQAILGEHPSSFRHDGYGSHGPLLPLPSRYRMGSRDTPELVAYPLPQASSSYMHGGNPSGSVVMVSGLHQLKMNCSRVFNLFCLYGNIEKVKFMKTIPGTALVEMGDEYAVERAVTHLNNVKLFGKRLNVCVSKQHSVVPSQIFELEDGTSSYKDFAMSKNNRFTSAGQASKNIIQPPSCVLHYYNVPLCVTEETFTKLCNDHEVLTFIKYKVFDAKPSAKTLSGLLEWECKTDAVEALTALNHYQIRVPNGSNPYTLKLCFSTSSHL [HNRNPLL]” were, in that order, 47.6 °C and 49.7 °C.

For “MTQSVVVQVGQCGNQIGCCFWDLALREHAAVNQKGIYDEAISSFFRNVDTRVVGDGGSISKGKICSLKARAVLIDMEEGVVNEILQGPLRDVFDTKQLITDISGSGNNWAVGHKVFGSLYQDQILEKFRKSAEHCDCLQCFFIIHSMGGGTGSGLGTFLLKVLEDEFPEVYRFVTSIYPSGEDDVITSPYNSILAMKELNEHADCVLPIDNQSLFDIISKIDLMVNSGKLGTTVKPKSLVTSSSGALKKQHKKPFDAMNNIVANLLLNLTSSARFEGSLNMDLNEISMNLVPFPQLHYLVSSLTPLYTLTDVNIPPRRLDQMFSDAFSKDHQLLRADPKHSLYLACALMVRGNVQISDLRRNIERLKPSLQFVSWNQEGWKTSLCSVPPVGHSHSLLALANNTCVKPTFMELKERFMRLYKKKAHLHHYLQVEGMEESCFTEAVSSLSALIQEYDQLDATKNMPVQDLPRLSIAM [TUBE1]”, in the series on HeLa Kyoto [2] (cell cycle stage: mitosis), the melting temperature was determined as 55.1 °C. Consider PLXNA2, for which the values for the melting temperature in the series with HeLa Kyoto [2] (cell cycle stage: G1/S) and with HeLa Kyoto [2] (cell cycle stage: mitosis) were 54.1 °C and 54.4 °C, respectively.
